Laboratory results: patent US20210101970A1

Tests used:
human CXCR5 (human) [1] = target: human CXCR5 (human) (UniProt P32302); assay: FACS on cells expressing the CXCR5 construct
mouse CXCR5 (mouse) = mouse CXCR5 (mouse) (UniProt Q04683); assay: FACS on cells expressing the CXCR5 construct
human CXCR5 (human) [2] = target: human CXCR5 (human) (UniProt P32302); assay: cell-based or functional assay

Chain of human CXCR5 (human) (P32302 whole entry): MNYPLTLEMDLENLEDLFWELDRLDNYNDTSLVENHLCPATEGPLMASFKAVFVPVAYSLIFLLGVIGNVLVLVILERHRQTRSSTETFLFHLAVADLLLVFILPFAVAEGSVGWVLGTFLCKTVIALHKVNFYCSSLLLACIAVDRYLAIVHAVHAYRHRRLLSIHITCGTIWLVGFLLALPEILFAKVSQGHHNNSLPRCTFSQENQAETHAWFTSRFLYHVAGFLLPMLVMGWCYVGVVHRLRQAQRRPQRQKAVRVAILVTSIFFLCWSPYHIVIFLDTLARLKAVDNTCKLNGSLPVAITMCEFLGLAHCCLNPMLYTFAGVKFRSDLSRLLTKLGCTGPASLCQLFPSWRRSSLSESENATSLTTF
Chain of mouse CXCR5 (mouse) (Q04683 whole entry): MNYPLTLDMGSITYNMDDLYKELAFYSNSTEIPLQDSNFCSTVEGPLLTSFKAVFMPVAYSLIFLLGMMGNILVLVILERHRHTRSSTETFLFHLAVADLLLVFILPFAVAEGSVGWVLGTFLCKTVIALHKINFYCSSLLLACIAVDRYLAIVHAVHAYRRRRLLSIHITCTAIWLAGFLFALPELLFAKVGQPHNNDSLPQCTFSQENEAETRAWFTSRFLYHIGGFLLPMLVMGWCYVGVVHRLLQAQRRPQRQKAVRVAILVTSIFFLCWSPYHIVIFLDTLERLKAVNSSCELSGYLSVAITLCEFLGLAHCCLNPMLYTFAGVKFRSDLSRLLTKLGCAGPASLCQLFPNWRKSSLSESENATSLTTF

Row | Substance | GMFI (human CXCR5 (human) [1]) [GMFI] | GMFI (mouse CXCR5 (mouse)) [GMFI] | IC80, inhibition of forskolin-triggered cAMP production (human CXCR5 (human) [2]) [nM]
1 | rabbit anti-human CXCR5 (catalog ab46218, Abcam) (antibody) | 18600 | 1040 | –
2 | rat anti-mouse CXCR5 (catalog MAB6198, R&D systems) (antibody) | 2460 | 12500 | –
3 | recombinant hCXCL13 (from UniProt O43927 23-109) (ligand) | – | – | 0.6
